According to US20040106198A1, “Inhibition of peptide cleavage in plants” (LARGE SCALE BIOLOGY CORPORATION, priority 2002, published 2004):

Tested on: CD34+
Assay: CD34+ proliferation assays
Format: cell-based
Conditions: proteins purified from plants
Description: The vectors were used to inoculate plant leaves of different sets of plants as described in the examples above. Both plant homogenates and interstitial fluid were extracted as described above. hSCF and pSCF were each purified from 27 plants to yield 0.85 mg (˜15 mg/kg) and 2.5 mg (˜45 mg/kg) of protein respectively.

B1: pSCF: porcine Stem Cell growth Factor expressed in plants from GENEWARE vector (protein)
chain: QGICRNRVTDDVKDVTKLVANLPKDYKITLKYVPGMDVLPSHCWISEMVEQLSVSLTDLLDKFSNISEGLSNYSIIDKLVKIVDDLVECMEEHSFENVKKSSKSPEPRLFTPEKFFGIFNRSIDAFKDLEMVAPKTSECVISSTLTPEKDSRVSVTKPFMLPPVAA
biological activity in CD34+ proliferation assays: biologically active
